From paper PMC6699511 come the findings set out here.

As usually defined, the stoichiometry N is a count of units in the complex or per binding partner.

Assay [1] concerns the target his-HCF[K919I, A933L], His-tagged myosin heavy chain fragment with coiled-coil stabilizing mutations (Mus musculus). In words: SEC. (In general: In gel filtration, larger molecules generally elute earlier.)
Assay [2] addresses his-HCF, His-tagged myosin heavy chain fragment K810-E934 (Mus musculus). In words: pull-down.
The target in assay [3] is his-HCF[K919I, A933L], His-tagged myosin heavy chain fragment with coiled-coil stabilizing mutations (Mus musculus). Kind of assay: pull-down.

For the molecule “his-HCF[K919I, A933L], His-tagged myosin heavy chain fragment with coiled-coil stabilizing mutations (domain or fragment)”, the stoichiometry N in assay [1] worked out at 2.

B1: myosin regulatory light chain without His-tag (RLC), P97457 1-169 (natural protein)
chain: MPKCAKRRAGAEGSSNVFSMFDQTQIQEFKEAFTVIDQNRDGIIDKEDLRDTFAAMGRLNVKNEELDAMMKEASGPINFTVFLTMFGEKLKGADPEDVITGAFKVLDPEGKGTIKKQFLEELLTTQCDRFSQEEIKNMWAAFPPDVGGNVDYKNICYVITHGDAKDQE
modifications: not checked
In assay [2], B1 showed a stoichiometry N (RLC per his-HCF) of 1. In addition, in assay [3], the stoichiometry N (RLC per his-HCF[K919I, A933L]) was 1.
